Source: patent publication US20070099822A1, “Regulation of tissue mineralization and phosphate metabolism by asarm peptides” (priority 2003, published 2007)
Entries after “also recorded” stand apart in the source; their conditions may differ.

B1: Hu-MEPE: purified insect expressed full-length recombinant human MEPE (Matrix Extracellular Phosphoglycoprotein) (protein)
chain: PTFQPQTEKTKQSCVEEQRQEEKNKDNIGFHHLGKRINQELSSKENIVQERKKDLSLSEASENKGSSKSQNYFTNRQRLNKEYSISNKENTHNGLRMSIYPKSTGNKGFEDGDDAISKLHDQEEYGAALIRNNMQHIMGPVTAIKLLGEENKENTPRNVLNIIPASMNYAKAHSKDKKKPQRDSQAQKSPVKSKSTHRIQHNIDYLKHLSKVKKIPSDFEGSGYTDLQERGDNDISPFSGDGQPFKDIPGKGEATGPDLEGKDIQTGFAGPSEAESTHLDTKKPGYNEIPEREENGGNTIGTRDETAKEADAVDVSLVEGSNDIMGSTNFKELPGREGNRVDAGSQNAHQGKVEFHYPPAPSKEKRKEGSSDAAESTNYNEIPKNGKGSTRKGVDHSNRNQATLNEKQRFPSKGKSQGLPIPSRGLDNEIKNEMDSFNGPSHENIITHGRKYHYVPHRQNNSTRNKGMPQGKGSWGRQPHSNRRFSSRRRDDSSESSDSGSSSESDGD

Tests used:
[1] = tested on: mouse osteoblast cell-line 2T3; experiment: Mineralized bone matrix formation assay (von Kossa), BMP2-induced; assay type: cell-based; conditions: 2T3 cells; for effect on BMP2-mediated mineralization (von Kossa staining): Hu-MEPE 10-800 ng/mL, ASARM-peptide 60 and 300 ng/mL, control peptide 300 ng/mL
Excerpt: Mineralized bone matrix formation assay. A mouse osteoblast cell-line (2T3-cells) were monitored using a mineralized matrix formation assay as described by Bhargava et al. (Ultrastructural analysis of bone nodules formed in vitro by isolated fetal rat calvaria cells. Bone 9:155-63, 1988) and cultured as described previously (Bhargava et al., supra; Chen et al. Differential roles for bone morphogenetic protein (BMP) receptor type IB and IA in differentiation and specification of mesenchymal precursor cells to osteoblast and adipocyte lineages. J Cell Biol 142:295-305, 1998; and Zhao, et al. Bone morphogenetic protein receptor signaling is necessary for normal murine postnatal bone formation. J Cell Biol 157:1049-60, 2002). Mineralization of the murine osteoblastic 2T3 cell-line has been extensively studied using physical techniques, electron microscopy and histological techniques. This cell line (2T3) undergoes exogenous BMP2-induced mineralized-matrix indistinguishable from normal bone-mineral hydroxyapatite in-vitro (Bhargava et al., supra; Chen et al., supra; and Zhao et al., supra). The cells were plated in 24-well culture plates at density of 2×10^4 cells/well and cultured with minimal essential medium (MEM) supplemented with 10% FCS. When the cells reached confluency (day 0), the medium was changed to MEM containing 5% FCS, 100 μg/mL ascorbic acid and 5 mM β-glycerol phosphate with or without 100 ng/mL of BMP-2. The effects of Hu-MEPE, MEPE ASARM-peptide and control peptide at different doses (see results section) in the absence and presence of BMP2 were measured using the von Kossa stain for mineralization. The medium was changed every other day and fresh reagents were added. Von Kossa stain of mineralized bone matrix was performed as follows. The cell cultures were washed with PBS twice, fixed in phosphate buffered formalin for 10 min, and then washed with water, and serially dehydrated in 70%, 95%, and 100% ethanol, twice each and air dried. The plates were rehydrated from 100% to 95% to 80% ethanol to water before staining. The water was removed, a 2% silver nitrate solution was added, and the plates were exposed to sunlight for 20 min, after which the plates were rinsed with water. 5% sodium thiosulfate was added for 3 min and the plates were then rinsed with water. The modified van Gieson stain was then used as a counterstain after the von Kossa stain. The unmineralized collagen matrix can be recognized by the yellow/red van Gieson stain. The acid fuchsin solution (5 part of 1% acid fuchsin, 95 part of picric acid, and 0.25 part of 12 M HCl) was added for 5 min. The plates were washed with water, and then 2×95% ethanol and 2×100% ethanol, and dried for image analysis. The area of von Kossa stained matrix was quantitated as previously described (Chen et al., supra). Briefly matrix was quantified by automated image analysis using a video analysis program (Jandel Scientific, San Rafael Calif.) and also a Bio-Rad (Hercules, Calif.) Quantity-1 image analysis capture program. A video screen camera (CCD/RGB; Sony Corp., Park Ridge, N.J.) linked to a microscope (model BH2; Olympus Corp., Precision Instruments Division, Lake Success, N.Y.) equipped with metallurgical lens was used to image plates.

[2] = tested on: Na+ dependent phosphate co-transport in human renal proximal tubule cell-line (Hu-CL8); experiment: 33PO4 uptake scintillation proximity assay (SPA) in Hu-CL8; assay type: cell-based
Experimental: Measurement of ^33PO4 uptake and ^14C-α-methyl D-glucose uptake. A novel technique, scintillation proximity assay (SPA), was used to measure ^33PO4 uptake in-vitro. Human renal proximal-tubule primary cells (RPTEC) were purchased from Clonetics-Biowhittaker (Walkersville, Md.) (cat. no. CC2553) and were cultured and subcultured using the manufacturers recommended protocols, methods, buffers and media (cat. nos. CC3190, CC5034). Also a human renal cell-line (Hu-CL8) was cultured as previously described (Rowe et al. Candidate 56 and 58 kDa protein(s) responsible for mediating the renal defects in oncogenic hypophosphatemic osteomalacia. Bone 18(2):159-169, 1996). For ^33PO4-uptake measurement cells were grown in REBM media supplemented with 5% fetal calf serum (REBM-FCS) to 80% confluence (Clonetics-Biowhitaker, Walkersville, Md.: cat. nos. CC2553, CC3190 and CC5034) and seeded into 96 well (3000 cells/well) cytostar-T scintillating-microplates (Amersham-Pharmacia Biotech, Piscataway, N.J.: cat. no. RPNQ 0162). Cells were then cultured in 200 μL of REBM-FCS media for 24 h. Media was then replaced with serum free media (REBM) and the cells incubated for a further 3-4 h with Hu-MEPE, PTH (1-34) or media control respectively in REBM media. The concentrations of PTH (1-34) and Hu-MEPE were […] and each experimental dose was repeated eight times for statistical analysis. Following incubation media was removed and replaced with either phosphate uptake buffer (PUB) consisting of 150 mM NaCl/1 mM Cacl2/1.8 mM MgSO4/10 mM HEPE pH 7.0/0.1 mM phosphate buffer pH 7.0 and 3 uCi mL^−1 33P as orthophosphoric acid (18 MBq/mL or 5775.7 Gbq/mg stock solution Perkin Elmer, Wellesley, Mass.: cat. no. NEZ080). In order to determine the Na-dependent phosphate co-transporter activity a separate set of control cells were incubated with the same buffer but with choline chloride (150 mM) substituted for NaCl (CHUB buffer). […] Due to the unique design of the 96 well cytostar-plate radioactive decay in solution is not detected by the counter. In contrast, radioisotope attached to or taken into the cells initiates release of plastic-scintillant photons that are detected by the top-counter photo-multiplier tube. Thus, no washes are required and direct CPM can be counted in living cells. […] Conversion of a tetrazolium salt to a colored formazan product by living cells was then measured at 490 nm using a 96 well multi-well spectrophotometer with KC-4 software (absorbance at 490 nm is directly proportional to the number of living cells). Na-dependent ^33P uptake was then calculated by subtracting background counts and the choline chloride non Na-dependent ^33P uptake and results expressed as ^33PO4 femtomoles/10^4-cells/6 min. […]

Molecule	effect on BMP2-mediated mineralization (von Kossa staining) ([1]; BMP2 100 ng/mL, listed as MEPE ASARM-peptide)	effect on BMP2-mediated mineralization (von Kossa staining) ([1]; BMP2 100 ng/mL, listed as MEPE-ASARM-peptide)	effect on BMP2-mediated mineralization at concentrations above 100 ng/mL ([1]; BMP2 100 ng/mL, Hu-MEPE above 100 ng/mL)	effect on BMP2-mediated mineralization (von Kossa staining) ([1]; BMP2 100 ng/mL)	mineralization in the absence of BMP2 ([1]; no BMP2)	Vmax of percentage inhibition of 33PO4-uptake ([2]; Hu-CL8) [%]	inhibition of Na+ dependent phosphate co-transport ([2]; Hu-CL8)	Km of inhibition of 33PO4-uptake ([2]; Hu-CL8, lineweaver-burke plot) [ng/mL]
H-CFSSRRRDDSSESSDSGSSSESDGD-OH [ASARM-peptide]	dose-dependently inhibits	inhibit						
B1			very effective inhibitors; also recorded: completely inhibited mineralization	dose dependently and reproducibly inhibited mineralization; also recorded: inhibit; also recorded: highly significant inhibition	no effect on mineralization; also recorded: indistinguishable to control cells	9.1	dose-dependent in-vitro inhibition	23.8
